± gives the uncertainty stated by the source.
experiment: protein stability index of a GFP-peptide fusion (yeast GPS) (PSI 1-4); higher = more stable; sorted into four equal gates, so the index is relative within each strain; conditions: pdr5∆
Summary of the method: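 Tiled yeast protein peptides of 17 residues were each joined downstream of GFP, on plasmids that also express Cherry. The pooled library was maintained in yeast, and mid-log cultures in leucine-free medium were sorted into four equal gates on the GFP/Cherry ratio. Plasmids from every gate were amplified by PCR and sequenced on Illumina, with barcodes linking reads to strains. The protein stability index of a peptide is its gate-number-weighted read frequency summed over the gates.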

Sequence	protein stability index
KEAALKTMIKTIEKDKM [SMC2]	1.83 ± 0.14
KEAFEEEIKQSARNYDK [SMC1]	3.09 ± 0.082
KEEFRLMISPKDEETTE [RRI2]	1.68 ± 0.055
KEEVCQGMEGTVDLALF [YMR129W/POM152]	3.44 ± 0.27
KEFDETIFNLPKNKLVP [FAS1]	3.39 ± 0.18

same assay, conditions: san1∆

Sequence	protein stability index
ILEDTATMSVFLQRIDF [RRI2]	2.76 ± 0.056
ILEDYCYFRDFEYCRID [ISW2]	1.4 ± 0.11
ILKRDFELVSDLSYIEF [ECM29]	2.58 ± 0.072
ILLTSISRERDLFTHLW [SRP68]	2.75 ± 0.1
ILRMGAFRTIESKSDDN [RRI1]	2.92 ± 0.066
ILSLEQSSRVVSLSQLL [YCS4]	2.12 ± 0.098
ILVMETSEEQTKFLAKN [SWP82]	2.94 ± 0.048
IMGFISYHNGNLKGRPY [FAS2]	3.28 ± 0.057
IMSTEAHVNKVTEETTK [SIR4]	2.97 ± 0.04
INAKNIAFASNYGIVEL [RRP43]	1.4 ± 0.14
INDPTNKEYTLVHGIFG [SIN4]	2.25 ± 0.13
INDRNDRAIRKTCQWYS [DIS3]	2.98 ± 0.068
INGEDPANNHQLGLQTV [SMX2]	2.9 ± 0.073
INLNVDDDILIIRPILG [SRB4]	3.21 ± 0.059
INNPVNLTIHFGGEKGK [FAS1]	2.8 ± 0.07
INSIDTTESSDLKEGLQ [GRR1]	3.18 ± 0.037
INSPMPQQAQMQQAQFQ [SNF2]	3.11 ± 0.1
INSSNEALVQAFAFCIP [YCG1]	2.49 ± 0.059
INYHQYISKAQNDQWSI [SSN2]	2.56 ± 0.051
INYLLTLAITTVTNSKF [RPN2]	2.1 ± 0.074
INYQVDSKLLPKNIEPP [SWI3]	2.58 ± 0.064
IPGLSAGVNNDNTKESK [RTT102]	3.38 ± 0.071
IPNIPPNINTWQQVTAL [GAL11]	2.9 ± 0.11
IPNQEVLQYSDWESDLH [YDL116W/NUP84]	2.43 ± 0.043
IPNRRFTLWWSPTINRA [PRP8]	1.65 ± 0.052

Sequence	protein stability index
IPSPLSSTKPPGSVNSA [NUT1]	2.86 ± 0.076
IPTTKNLRLLVEENRVR [DLS1]	2.87 ± 0.097
IQEIKESVELPLTHPEL [RPT2]	2.74 ± 0.068
IQGISKMYSDDTLKDIS [BRN1]	3.37 ± 0.15
IQIDEETENSESIASSN [MCD1]	2.5 ± 0.082
IQPKITELKKKLDDLEN [SMC1]	3.11 ± 0.14
IQSKRLRNKIAGYTTHL [RPS17A]	3.23 ± 0.065
IRAIRKVISEILTKEVQ [RPS1A]	1.83 ± 0.021
IREIDVAGGKKALAIFV [RPS7A]	1.49 ± 0.17
IRGSDQAIPKFQMNCYA [RPN2]	1.55 ± 0.13
IRNINVQDALLTNQLYK [SNF2]	3.12 ± 0.05
IRNLTVFTMKELAQYMK [RGR1]	2.71 ± 0.2
IRNVLVTVDQYVNVAIS [SSN2]	1.29 ± 0.089
IRSSSVSLVAEATSNTN [MED4]	2.12 ± 0.098
IRVAETRGGASALIENN [YJL039C/NUP192]	3.1 ± 0.072
ISDIPYVISLSYTDAQD [YMR129W/POM152]	2.5 ± 0.061
ISFAAFILADAGLEITS [RPP1B]	2.03 ± 0.23
ISLHENKLSGILADEMG [ISW2]	2.71 ± 0.084
ISLRNNHKIIARVKAFD [SMD2]	2.49 ± 0.051
ISNNLALVFAALEHLKN [SRP68]	2.12 ± 0.052
ISPLMKSQYNMVLRNVM [SRB8]	2.79 ± 0.1
ISSLIGGFEYFLQPLLL [NUT1]	1.33 ± 0.16
ITGNKIMRILKSNGLAP [RPS13]	2.53 ± 0.16
ITHQGANSESGHYQAFI [UBP6]	3.16 ± 0.071
ITHYAVRGGNIEIMGIL [RRI1]	2.79 ± 0.095

Sequence	protein stability index
ITIDSVVDANGCVNSLI [YMR129W/POM152]	3.05 ± 0.055
ITLHPSFFGPRMKQYLK [RPB7]	1.75 ± 0.21
ITSNHKSSVPGSAELRN [RPN3]	2.67 ± 0.069
IVDPTAEQLKISLSVHT [RRP46]	2.34 ± 0.057
IVFVHSRKETSRTATWL [BRR2]	2.57 ± 0.21
IVIDVDYNKKQDRIQDV [MED1]	2.99 ± 0.094
IVNGQTFSYVDSSLQPE [YMR129W/POM152]	2.62 ± 0.052
IVNVLSKCLNLISDSNI [SWI3]	1.65 ± 0.073
IVPLHSPFLMGHPMTKS [SEC65]	2.57 ± 0.079
IVSKEYEKNFEATLESK [ESC2]	2.9 ± 0.088
IVVMDCFNLPVVGTETR [RRI1]	2.29 ± 0.17
IWDSQKFFIMIVKGNII [POP4]	1.38 ± 0.15
IYDDWLDRISSYTAFSR [PRP8]	1.92 ± 0.073
IYKPLLFEIVSNADTNQ [SRB8]	2.33 ± 0.09
IYKSIFNVVDVGVDQLS [YJL039C/NUP192]	3.05 ± 0.041
IYNKMIGVLNNSSESDE [RPN13]	2.94 ± 0.06
IYQHLASHNEKDQDSQI [SRP72]	2.53 ± 0.12
IYQVPEKDLEHWLQLAK [POP1]	3.42 ± 0.091
IYRDRSTFTKHLIKCFF [ITC1]	2.21 ± 0.046
IYRYKYKVMHQIRACKD [PRP8]	2.45 ± 0.078
KAAFLGSEVRLRDDTLP [COR1]	2.93 ± 0.061
KAALERLKVFEGIPPPY [RPL16A]	3.09 ± 0.092
KAELPQWYTLQSQLNVT [MED8]	2.8 ± 0.05
KAHPNFPIALQWTGGRG [FAS1]	2.2 ± 0.096
KAKIIPGNGKHASENIS [SIR4]	2.67 ± 0.13

Sequence	protein stability index
KAKRQINSGTNSANGSS [SSN3]	2.92 ± 0.057
KALILAPTRELVQQIQK [PRP28]	2.75 ± 0.073
KANISLETLEHNGAPHH [RPO21]	3.19 ± 0.12
KAPEAEQVLSAAATFPI [RPL13A]	2.96 ± 0.078
KASTISRGAVSGQKAGL [RPL2A]	2.67 ± 0.055
KASVLEISPQDSIASVL [GAL11]	3.13 ± 0.083
KDFLKAVDKVISGYKKF [RPT1]	3.12 ± 0.092
KDHLLLEEEFVSNSEIL [RPT2]	2.83 ± 0.066
KDIAKRQFKEILTVKEE [RRP40]	2.46 ± 0.057
KDIIDPKLTSIFERMIE [RPN2]	2.93 ± 0.078
KDLEIRKLEISSRFKHR [GAL11]	3.16 ± 0.13
KDLVTENAYDNPLADAE [PRE4]	3.32 ± 0.11
KDNECSSFEENNDLESV [RRI2]	3.1 ± 0.17
KDQRATTPYMTKYERAR [RPO26]	2.44 ± 0.11
KDRFDIDEKSQFVETIV [RPN2]	1.93 ± 0.066
KDSVTECSKDMKEDGLS [SIR4]	3.23 ± 0.07
KDSYINANTIETAKMIE [FAS2]	3.18 ± 0.032
KDWTDTFVYILEKLIFD [SRB8]	2.73 ± 0.074
KDYEAKTKAMSLSIEEN [POP1]	2.28 ± 0.082
KDYHTLANNVESKLRDD [RPS18A]	3.39 ± 0.11
KEAALKTMIKTIEKDKM [SMC2]	1.57 ± 0.13
KEAFEEEIKQSARNYDK [SMC1]	3.06 ± 0.051
KEEFRLMISPKDEETTE [RRI2]	1.14 ± 0.14

From the supplement of paper PMC9732359
